How the values were obtained:
microtubule [1] = assay: Localization test of probe candidates (integrated SiMS images); format: cell-based, Xenopus laevis; set-up: key: “localization” is positive (P) when above criterion (1) is met; settings: fixed, permeabilized XTC cell; lysate supernatant of EGFP fused probe; TIRF, 10000 frames
Protocol: (§1) HEK (Human embryonic kidney)-293F cells were transfected with a plasmid encoding a probe candidate protein tagged with FLAG-EGFP or 3×FLAG-EGFP. […] Centrifugal separation was performed on the lysate and the supernatant liquid was collected. In order to perform screening for a probe for IRIS, the binding capacity of a probe candidate in the supernatant liquid with respect to the structure of an XCT cell that was fixed with paraformaldehyde (PFA) and that received a permeabilization process was tested. The appearance and disappearance of single molecule speckles (Single-molecule speckles, SiMS) in the structure was tested. Screening was performed for a probe for IRIS in accordance with the following criteria:
(§2) (1) It is possible to confirm a distribution of target substances in the structure in an image resulting from adding SiMS images;
(§3) The localization test of the above (1), whose result is shown in table 1, was performed in the following procedures. First, the supernatant liquid of lysate of a cell that expressed each probe candidate was brought into contact with an XCT cell that was fixed on a coverglass and that received a permeabilization process. […] The obtained speckle images of 10000 frames were integrated so as to confirm whether or not a distribution of target substances in the cell (microtubule, intermediate filament, focal adhesion or actin filament) was able to be confirmed. When a distribution of a target substances was able to be confirmed, the result of the localization test was treated as P (positive).

microtubule [2] = assay: Measurement of binding half-life of probe-target complex; set-up: species or system Xenopus laevis; settings: fixed XTC cell, single exponential fit
Description: (§4) A probe and a target substance have the following binding characteristics. […] The above half-life herein is preferably a half-life of a probe-target complex formed by binding between a probe and a target substance in a case when a medium containing a probe and a sample containing a target substance that is to be observed are brought into contact under a condition for performing an imaging step. […] Measurement procedures for the half-life are as below. […] Ndissociation is a cumulative relative frequency of a probe that dissociated. A cumulative relative frequency is a ratio of the speckles that disappeared within a given period of time to the total number of measured speckles (i.e. probes) (i.e. probes that dissociated within a given period of time), and represents the total number as 1. Then, by fitting the above complementary cumulative relative frequency function with an exponent function, that half-life is calculated.
The measurement of binding half-life, whose result is shown in table 1, was performed in the following procedures. Speckle images of 10000 frames picked up in the localization test were used in order to measure a period of time between the appearance of a probe that has bound to a target in a speckle image and disappearance through dissociation in a semi-manual mode by using Speckle TrackerJ, an ImageJ plug-in. In case of for example picking up of images with an exposure time of 50 ms and at a frame rate of 20 Hz, it is assumed that a period of time between the appearance and disappearance of a speckle that is observed in only one of consecutive frames is 50 ms and a period of time between the appearance and disappearance of a speckle observed in only two consecutive frames is 100 ms. […] Ndissociation is a cumulative relative frequency of probes that dissociated. Then, by fitting the complementary cumulative relative frequency function with an exponent function, the half-life was calculated. However, the binding half-life with respect to an actin filament of Atto488-Lifeact was measured by using a method that is described in detail in the section for FIG. 9 in the Brief Description of the Drawings.

microtubule [3] = assay: Washability test of probe candidates; format: cell-based, Xenopus laevis; set-up: key: “washability” is positive (P) when above criterion (2) is met; settings: speckles equal to or less than about 10% after switching imaging solution 10 to 20 times
Protocol: (§5) (2) It is possible to wash and remove a probe after SiMS imaging (imaging step);
(§6) The […] of the above (2), whose result is shown in table 1, was performed in the following procedures. […] This switching of imaging solution was conducted slowly so that the observation position would not shift. Next, an imaging solution not containing a probe and not containing the active oxygen-scavenging mix was switched 10 to 20 times. After the switching, for confirmation, for an XCT cell sample in the observation chamber, speckle images of 10 frames were picked up under a similar condition to that of the localization test described in the previous paragraph, and when the number of speckles confirmed in the speckle images (i.e., the number of probes that had bound) became sufficiently smaller (equal to or less than about 10%) than the number of the speckles in the speckle images before the washing operation, washing was determined to be possible and the result was treated as P (positive).

microtubule [4] = assay: IRIS image test (reconstruction image); format: cell-based, Xenopus laevis; set-up: key: “IRIS image” is positive (P) when above criterion (3) is met; settings: reconstruction from 10000 frames with DAOSTORM
Protocol: (§7) […] It is possible to reconstruct an image of a target substance by integrating the central positions of the respective speckles. The IRIS image test of the above (3) whose result is described in table 1 was performed in the following procedures. By using all the speckle images of 10000 frames picked up in the localization test, the central point of a probe that has bound to a target in each frame of the speckle images was determined with nanometer accuracy by using DAOSTORM. By adding a large number of pieces of central point information in the fluorescence images of 10000 frames, a reconstruction image (observation image) was generated. Whether or not a distribution of a target molecule was able to be observed in that reconstruction image was determined, and when a distribution of a target molecule was observed, the result was treated as P (positive).

focal adhesion [5] = assay: Localization test of probe candidates (integrated SiMS images); format: cell-based, Xenopus laevis; set-up: key: “localization” is positive (P) when above criterion (1) is met; settings: fixed, permeabilized XTC cell; lysate supernatant of EGFP fused probe; TIRF, 10000 frames
Protocol: as §1, §2, §3

focal adhesion [6] = assay: Measurement of binding half-life of probe-target complex; set-up: species or system Xenopus laevis; settings: fixed XTC cell, single exponential fit
Description: as §4
The measurement of binding half-life, whose result is shown in table 1, was performed in the following procedures. […] Then, by fitting the complementary cumulative relative frequency function with an exponent function, the half-life was calculated. However, the binding half-life with respect to an actin filament of Atto488-Lifeact was measured by using a method that is described in detail in the section for FIG. 9 in the Brief Description of the Drawings.

focal adhesion [7] = assay: Washability test of probe candidates; format: cell-based, Xenopus laevis; set-up: key: “washability” is positive (P) when above criterion (2) is met; settings: speckles equal to or less than about 10% after switching imaging solution 10 to 20 times
Protocol: as §5, §6

focal adhesion [8] = assay: IRIS image test (reconstruction image); format: cell-based, Xenopus laevis; set-up: key: “IRIS image” is positive (P) when above criterion (3) is met; settings: reconstruction from 10000 frames with DAOSTORM
Protocol: as §7

B1: MAP4 659-908: EGFP fused (N terminus) mouse MAP4 fragment, amino acid residues 659-908 of sequence number 4 (protein, UniProt P27546 659-908, looked up, fragment)
chain: PPNKEPPPSPEKKAKPLATTQPAKTSTSKAKTQPTSLPKQPAPTTSGGLNKKPMSLASGSVPAAPHKRPAAATATARPSTLPARDVKPKPITEAKVAEKRTSPSKPSSAPALKPGPKTTPTVSKATSPSTLVSTGPSSRSPATTLPKRPTSIKTEGKPADVKRMTAKSASADLSRSKTTSASSVKRNTTPTGAAPPAGMTSTRVKPMSAPSRSSGALSVDKKPTSTKPSSSAPRVSRLATTVSAPDLKSV
modifications: N-terminal EGFP fusion
In the case of B1, the LOCALIZATION (microtubule [1]) is reported as “P”, the HALF-LIFE (microtubule [2]) is reported as 0.106 s and the WASHABILITY (microtubule [3]) is reported as “P”. The “IRIS IMAGE” value (microtubule [4]) was “P”.

B2: Paxillin 54-498: EGFP fused (N terminus) human Paxillin fragment, residues 54-498 of sequence number 15 (protein, UniProt P49023 54-498, looked up, fragment)
chain: SSEALNGTILDPLDQWQPSSSRFIHQQPQSSSPVYGSSAKTSSVSNPQDSVGSPCSRVGEEEHVYSFPNKQKSAEPSPTVMSTSLGSNLSELDRLLLELNAVQHNPPGFPADEANSSPPLPGALSPLYGVPETNSPLGGKAGPLTKEKPKRNGGRGLEDVRPSVESLLDELESSVPSPVPAITVNQGEMSSPQRVTSTQQQTRISASSATRELDELMASLSDFKIQGLEQRADGERCWAAGWPRDGGRSSPGGQDEGGFMAQGKTGSSSPPGGPPKPGSQLDSMLGSLQSDLNKLGVATVAKGVCGACKKPIAGQVVTAMGKTWHPEHFVCTHCQEEIGSRNFFERDGQPYCEKDYHNLFSPRCYYCNGPILDKVVTALDRTWHPEHFFCAQCGAFFGPEGFHEKDGKAYCRKDYFDMFAPKCGGCARAILENYISALNTLWHPE
modifications: N-terminal EGFP fusion
In the case of B2, the LOCALIZATION (focal adhesion [5]) is reported as “P”, the HALF-LIFE (focal adhesion [6]) is reported as 0.091 s and the WASHABILITY (focal adhesion [7]) is reported as “P”. For the same molecule, the “IRIS IMAGE” value (focal adhesion [8]) was “P”.

B3: Paxillin 167-557: EGFP fused (N terminus) human Paxillin fragment, residues 167-557 of sequence number 15 (protein, UniProt P49023 167-557, looked up, fragment)
chain: ANSSPPLPGALSPLYGVPETNSPLGGKAGPLTKEKPKRNGGRGLEDVRPSVESLLDELESSVPSPVPAITVNQGEMSSPQRVTSTQQQTRISASSATRELDELMASLSDFKIQGLEQRADGERCWAAGWPRDGGRSSPGGQDEGGFMAQGKTGSSSPPGGPPKPGSQLDSMLGSLQSDLNKLGVATVAKGVCGACKKPIAGQVVTAMGKTWHPEHFVCTHCQEEIGSRNFFERDGQPYCEKDYHNLFSPRCYYCNGPILDKVVTALDRTWHPEHFFCAQCGAFFGPEGFHEKDGKAYCRKDYFDMFAPKCGGCARAILENYISALNTLWHPECFVCRECFTPFVNGSFFEHDGQPYCEVHYHERRGSLCSGCQKPITGRCITAMAKKFHPE
modifications: N-terminal EGFP fusion
B3 was tested, and the LOCALIZATION (focal adhesion [5]) was “P”, the HALF-LIFE (focal adhesion [6]) was 0.138 s and the WASHABILITY (focal adhesion [7]) was “P”. For the same molecule, the “IRIS IMAGE” value (focal adhesion [8]) was “P”.

Reference: patent US10858688B2, “Observation method using binding and dissociation probe” (KYOTO UNIVERSITY, priority 2015, dated 2020)
